Measurements: patent US20250304643A1 (BAINAN BIOTECH, published 2025)
*1 amine or outer side, *2 acyl side, *3 side chain or, on linkers, in order; H or OH if unused. Where no end group is shown, it is not given here. Side-chain parts run from the residue outwards. [ ]: non-standard residue; d: D form. The star is where a group is joined. C16 diacid = O=C(O)CCCCCCCCCCCCCCC(=O)*; γGlu = O=C(O)[C@H](CCC(=O)[*:2])N[*:1]; Palmitoyl = CCCCCCCCCCCCCCCC(=O)*; Decanoyl = CCCCCCCCCC(=O)*; Aib = CC(C)(N)C(=O)O

B1: Compound no. 29 (peptide)
peptide: H[Aib]DGTFISDYK([γGlu-Palmitoyl])T[Aib]LDNLAARDFINWLIQTKITK-OH
modifications: N-terminus assumed
SMILES: CCCCCCCCCCCCCCCC(=O)N[C@@H](CCC(=O)NCCCC[C@H](NC(=O)[C@H](Cc1ccc(O)cc1)NC(=O)[C@H](CC(=O)O)NC(=O)[C@H](CO)NC(=O)[C@@H](NC(=O)[C@H](Cc1ccccc1)NC(=O)[C@@H](NC(=O)CNC(=O)[C@H](CC(=O)O)NC(=O)C(C)(C)NC(=O)[C@@H](N)Cc1c[nH]cn1)[C@@H](C)O)[C@@H](C)CC)C(=O)N[C@H](C(=O)NC(C)(C)C(=O)N[C@@H](CC(C)C)C(=O)N[C@@H](CC(=O)O)C(=O)N[C@@H](CC(N)=O)C(=O)N[C@@H](CC(C)C)C(=O)N[C@@H](C)C(=O)N[C@@H](C)C(=O)N[C@@H](CCCNC(=N)N)C(=O)N[C@@H](CC(=O)O)C(=O)N[C@@H](Cc1ccccc1)C(=O)N[C@H](C(=O)N[C@@H](CC(N)=O)C(=O)N[C@@H](Cc1c[nH]c2ccccc12)C(=O)N[C@@H](CC(C)C)C(=O)N[C@H](C(=O)N[C@@H](CCC(N)=O)C(=O)N[C@H](C(=O)N[C@@H](CCCCN)C(=O)N[C@H](C(=O)N[C@H](C(=O)N[C@@H](CCCCN)C(=O)O)[C@@H](C)O)[C@@H](C)CC)[C@@H](C)O)[C@@H](C)CC)[C@@H](C)CC)[C@@H](C)O)C(=O)O
B2: Compound no. 24 (peptide)
peptide: H[Aib]DGK([γGlu-Decanoyl])FISDYST[Aib]LDNLAARDFINWLIQTKITK-OH
modifications: N-terminus assumed
SMILES: CCCCCCCCCC(=O)N[C@@H](CCC(=O)NCCCC[C@H](NC(=O)CNC(=O)[C@H](CC(=O)O)NC(=O)C(C)(C)NC(=O)[C@@H](N)Cc1c[nH]cn1)C(=O)N[C@@H](Cc1ccccc1)C(=O)N[C@H](C(=O)N[C@@H](CO)C(=O)N[C@@H](CC(=O)O)C(=O)N[C@@H](Cc1ccc(O)cc1)C(=O)N[C@@H](CO)C(=O)N[C@H](C(=O)NC(C)(C)C(=O)N[C@@H](CC(C)C)C(=O)N[C@@H](CC(=O)O)C(=O)N[C@@H](CC(N)=O)C(=O)N[C@@H](CC(C)C)C(=O)N[C@@H](C)C(=O)N[C@@H](C)C(=O)N[C@@H](CCCNC(=N)N)C(=O)N[C@@H](CC(=O)O)C(=O)N[C@@H](Cc1ccccc1)C(=O)N[C@H](C(=O)N[C@@H](CC(N)=O)C(=O)N[C@@H](Cc1c[nH]c2ccccc12)C(=O)N[C@@H](CC(C)C)C(=O)N[C@H](C(=O)N[C@@H](CCC(N)=O)C(=O)N[C@H](C(=O)N[C@@H](CCCCN)C(=O)N[C@H](C(=O)N[C@H](C(=O)N[C@@H](CCCCN)C(=O)O)[C@@H](C)O)[C@@H](C)CC)[C@@H](C)O)[C@@H](C)CC)[C@@H](C)CC)[C@@H](C)O)[C@@H](C)CC)C(=O)O
B3: Compound no. 25 (peptide)
peptide: H[Aib]DGK([γGlu-C16 diacid])FISDYST[Aib]LDNLAARDFINWLIQTKITK-OH
modifications: N-terminus assumed
SMILES: CC[C@H](C)[C@H](NC(=O)[C@H](Cc1ccccc1)NC(=O)[C@H](CCCCNC(=O)CC[C@H](NC(=O)CCCCCCCCCCCCCCC(=O)O)C(=O)O)NC(=O)CNC(=O)[C@H](CC(=O)O)NC(=O)C(C)(C)NC(=O)[C@@H](N)Cc1c[nH]cn1)C(=O)N[C@@H](CO)C(=O)N[C@@H](CC(=O)O)C(=O)N[C@@H](Cc1ccc(O)cc1)C(=O)N[C@@H](CO)C(=O)N[C@H](C(=O)NC(C)(C)C(=O)N[C@@H](CC(C)C)C(=O)N[C@@H](CC(=O)O)C(=O)N[C@@H](CC(N)=O)C(=O)N[C@@H](CC(C)C)C(=O)N[C@@H](C)C(=O)N[C@@H](C)C(=O)N[C@@H](CCCNC(=N)N)C(=O)N[C@@H](CC(=O)O)C(=O)N[C@@H](Cc1ccccc1)C(=O)N[C@H](C(=O)N[C@@H](CC(N)=O)C(=O)N[C@@H](Cc1c[nH]c2ccccc12)C(=O)N[C@@H](CC(C)C)C(=O)N[C@H](C(=O)N[C@@H](CCC(N)=O)C(=O)N[C@H](C(=O)N[C@@H](CCCCN)C(=O)N[C@H](C(=O)N[C@H](C(=O)N[C@@H](CCCCN)C(=O)O)[C@@H](C)O)[C@@H](C)CC)[C@@H](C)O)[C@@H](C)CC)[C@@H](C)CC)[C@@H](C)O
B4: Compound no. 26 (peptide)
peptide: H[Aib]DGK([γGlu-γGlu-Decanoyl])FISDYSTILDNLAARDFINWLIQTKITK-OH
modifications: N-terminus assumed
SMILES: CCCCCCCCCC(=O)N[C@@H](CCC(=O)N[C@@H](CCC(=O)NCCCC[C@H](NC(=O)CNC(=O)[C@H](CC(=O)O)NC(=O)C(C)(C)NC(=O)[C@@H](N)Cc1c[nH]cn1)C(=O)N[C@@H](Cc1ccccc1)C(=O)N[C@H](C(=O)N[C@@H](CO)C(=O)N[C@@H](CC(=O)O)C(=O)N[C@@H](Cc1ccc(O)cc1)C(=O)N[C@@H](CO)C(=O)N[C@H](C(=O)N[C@H](C(=O)N[C@@H](CC(C)C)C(=O)N[C@@H](CC(=O)O)C(=O)N[C@@H](CC(N)=O)C(=O)N[C@@H](CC(C)C)C(=O)N[C@@H](C)C(=O)N[C@@H](C)C(=O)N[C@@H](CCCNC(=N)N)C(=O)N[C@@H](CC(=O)O)C(=O)N[C@@H](Cc1ccccc1)C(=O)N[C@H](C(=O)N[C@@H](CC(N)=O)C(=O)N[C@@H](Cc1c[nH]c2ccccc12)C(=O)N[C@@H](CC(C)C)C(=O)N[C@H](C(=O)N[C@@H](CCC(N)=O)C(=O)N[C@H](C(=O)N[C@@H](CCCCN)C(=O)N[C@H](C(=O)N[C@H](C(=O)N[C@@H](CCCCN)C(=O)O)[C@@H](C)O)[C@@H](C)CC)[C@@H](C)O)[C@@H](C)CC)[C@@H](C)CC)[C@@H](C)CC)[C@@H](C)O)[C@@H](C)CC)C(=O)O)C(=O)O
B5: Compound no. 27 (peptide)
peptide: H[Aib]EGK([γGlu-Palmitoyl])FISDYST[Aib]LDNLAARDFINWLIQTKITK-OH
modifications: N-terminus assumed
SMILES: CCCCCCCCCCCCCCCC(=O)N[C@@H](CCC(=O)NCCCC[C@H](NC(=O)CNC(=O)[C@H](CCC(=O)O)NC(=O)C(C)(C)NC(=O)[C@@H](N)Cc1c[nH]cn1)C(=O)N[C@@H](Cc1ccccc1)C(=O)N[C@H](C(=O)N[C@@H](CO)C(=O)N[C@@H](CC(=O)O)C(=O)N[C@@H](Cc1ccc(O)cc1)C(=O)N[C@@H](CO)C(=O)N[C@H](C(=O)NC(C)(C)C(=O)N[C@@H](CC(C)C)C(=O)N[C@@H](CC(=O)O)C(=O)N[C@@H](CC(N)=O)C(=O)N[C@@H](CC(C)C)C(=O)N[C@@H](C)C(=O)N[C@@H](C)C(=O)N[C@@H](CCCNC(=N)N)C(=O)N[C@@H](CC(=O)O)C(=O)N[C@@H](Cc1ccccc1)C(=O)N[C@H](C(=O)N[C@@H](CC(N)=O)C(=O)N[C@@H](Cc1c[nH]c2ccccc12)C(=O)N[C@@H](CC(C)C)C(=O)N[C@H](C(=O)N[C@@H](CCC(N)=O)C(=O)N[C@H](C(=O)N[C@@H](CCCCN)C(=O)N[C@H](C(=O)N[C@H](C(=O)N[C@@H](CCCCN)C(=O)O)[C@@H](C)O)[C@@H](C)CC)[C@@H](C)O)[C@@H](C)CC)[C@@H](C)CC)[C@@H](C)O)[C@@H](C)CC)C(=O)O
B6: Compound no. 28 (peptide)
peptide: H[Aib]DGK([γGlu-γGlu-Palmitoyl])FISDYST[Aib]LDNLAARDFINWLIQTKITK-OH
modifications: N-terminus assumed
SMILES: CCCCCCCCCCCCCCCC(=O)N[C@@H](CCC(=O)N[C@@H](CCC(=O)NCCCC[C@H](NC(=O)CNC(=O)[C@H](CC(=O)O)NC(=O)C(C)(C)NC(=O)[C@@H](N)Cc1c[nH]cn1)C(=O)N[C@@H](Cc1ccccc1)C(=O)N[C@H](C(=O)N[C@@H](CO)C(=O)N[C@@H](CC(=O)O)C(=O)N[C@@H](Cc1ccc(O)cc1)C(=O)N[C@@H](CO)C(=O)N[C@H](C(=O)NC(C)(C)C(=O)N[C@@H](CC(C)C)C(=O)N[C@@H](CC(=O)O)C(=O)N[C@@H](CC(N)=O)C(=O)N[C@@H](CC(C)C)C(=O)N[C@@H](C)C(=O)N[C@@H](C)C(=O)N[C@@H](CCCNC(=N)N)C(=O)N[C@@H](CC(=O)O)C(=O)N[C@@H](Cc1ccccc1)C(=O)N[C@H](C(=O)N[C@@H](CC(N)=O)C(=O)N[C@@H](Cc1c[nH]c2ccccc12)C(=O)N[C@@H](CC(C)C)C(=O)N[C@H](C(=O)N[C@@H](CCC(N)=O)C(=O)N[C@H](C(=O)N[C@@H](CCCCN)C(=O)N[C@H](C(=O)N[C@H](C(=O)N[C@@H](CCCCN)C(=O)O)[C@@H](C)O)[C@@H](C)CC)[C@@H](C)O)[C@@H](C)CC)[C@@H](C)CC)[C@@H](C)O)[C@@H](C)CC)C(=O)O)C(=O)O

Tests used:
[1] = molecular target: T1, human glucose-dependent insulinotropic polypeptide receptor (human, UniProt P48546 22-466); test: cell-based or functional assay
T1 sequence (looked up): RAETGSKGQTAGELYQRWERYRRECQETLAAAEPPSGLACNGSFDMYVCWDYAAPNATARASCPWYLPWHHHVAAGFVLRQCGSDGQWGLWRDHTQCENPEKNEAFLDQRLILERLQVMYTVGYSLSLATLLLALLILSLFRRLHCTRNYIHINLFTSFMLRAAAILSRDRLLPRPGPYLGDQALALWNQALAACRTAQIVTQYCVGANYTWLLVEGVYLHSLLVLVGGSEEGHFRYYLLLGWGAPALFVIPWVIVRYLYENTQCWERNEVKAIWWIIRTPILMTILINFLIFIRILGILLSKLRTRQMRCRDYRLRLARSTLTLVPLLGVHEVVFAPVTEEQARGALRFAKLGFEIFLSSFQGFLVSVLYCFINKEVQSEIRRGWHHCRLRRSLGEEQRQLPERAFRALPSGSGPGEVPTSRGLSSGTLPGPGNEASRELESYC

[2] = molecular target: T2, human glucagon-like peptide-2 receptor (human, UniProt O95838 1-553); test: cell-based or functional assay
T2 sequence (looked up): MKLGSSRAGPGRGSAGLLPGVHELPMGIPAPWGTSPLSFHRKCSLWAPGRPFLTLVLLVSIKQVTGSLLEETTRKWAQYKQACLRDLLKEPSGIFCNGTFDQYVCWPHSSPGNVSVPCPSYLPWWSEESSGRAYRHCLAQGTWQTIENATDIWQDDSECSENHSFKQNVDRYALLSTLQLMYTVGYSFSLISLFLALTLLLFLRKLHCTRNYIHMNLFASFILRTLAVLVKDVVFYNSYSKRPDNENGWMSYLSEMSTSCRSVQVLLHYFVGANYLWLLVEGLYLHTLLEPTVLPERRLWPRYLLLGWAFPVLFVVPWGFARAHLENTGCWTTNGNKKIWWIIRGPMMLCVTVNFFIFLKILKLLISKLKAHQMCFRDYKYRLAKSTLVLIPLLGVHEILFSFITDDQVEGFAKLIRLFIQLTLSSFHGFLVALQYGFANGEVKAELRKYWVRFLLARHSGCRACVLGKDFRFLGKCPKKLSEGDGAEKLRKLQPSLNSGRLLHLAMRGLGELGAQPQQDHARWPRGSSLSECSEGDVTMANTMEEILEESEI

Row | Binder | Efficacy GIPR [1] | Efficacy GLP-2R [2] | logEC50 GLP-2R [2]
1 | B1 | 104% | 124% | 
2 | B2 | 113% | 90% | 
3 | B3 | 93% | 88% | 9
4 | B4 | 80% | 91% | 
5 | B5 | 98% | 108% | 
6 | B6 | 105% | 99% | 
